Measured values reported in the DeepSol protein solubility set.

Experiment: soluble on expression in E. coli; label from the status in PepcDB or PDB records

Soluble on expression in E. coli, soluble:
MALNDNPIPKSVPLHPKSGKYFHNLHARDLSNIYQQCYKQIDETINQLVDSTSPSTIGIEEQVADITSTYKLLSTYESESNSFDEHIKDLKKNFKQSSDACPQIDLSTWDKYRTGELTAPKLSELYLNMPTPEPATMVNNTDTLKILKVLPYIWNDPTCVIPDLQNPADEDDLQIEGGKIELTCPITCKPYEAPLISRKCNHVFDRDGIQNYLQGYTTRDCPQAACSQVVSMRDFVRDPIMELRCKIAKMKESQEQDKRSSQAIDVL
MAELDEAALLGDGNEQHDGPIDENALLDGKELKEEDIDDLYDEAIAPTNSTESAKPVSPTITTVTAPTAGIGAKPATSSEGRKYCCYVGNLLWYTTDADLLKALQSTGLARSQFADMKFFENRTNGQSKGYALLVLNSDAAVKQTMEILPTKTIHGQSPTVLSYNKTNQAKLEDAQAKNQTRPDVKKKGFEEGCVNMGTIRIGAGGQTGRTGTSVSGRSGPPPLMMQQVRPTPLMSQPTSLPSNLNQAPQMRLQINGQQVPLMNRAPVPQQTMLGNGPLGGMNQQIQQQPQMMMGQQVRPMMQTSMGIQPMMGMNAPPPMNNQFQNRPPQLGSMGVQPLMQMNTAMRPPINGLPPVHVNPQMFPGLQGTVLSDAEFEDVMTRNQTVSSSAIARAITDASVGDIKGASETILTAIQLIKNSRIGHDERCRQLVYGLEHTLKGLESKGYSSRSKSHRDRSRSRERDRKRRRRSRTRSRSYSRSPSPRRRRY
MDYGMYFFEHVTPYETLVRRMERVIASGKTPFQDYFLFESKGFGKVLILDKDVQSTERDEYIYHETLVHPAMLTHPEPKRVLIVGGGEGATLREVLKHPTVEKAVMVDIDGELVEVAKRHMPEWHQGAFDDPRAVLVIDDARAYLERTEERYDVVIIDLTDPVGEDNPARLLYTVEFYRLVKAHLNPGGVMGMQAGMILLTHHRVHPVVHRTVREAFRYVRSYKNHIPGFFLNFGFLLASDAFDPAAFSEGVIEARIRERNLALRHLTAPYLEAMFVLPKDLLEALEKETMVSTDQNPFYVTPEGEARQAPYKG
QGHMRATNVTYQAHHVSRNKRGQVVGTRGGFRGCTIWLTGLSGAGKTTVSMALEEYLVCHGIPCYTLDGDNIRQGLNKNLGFSPEDREENVRRIAEVAKLFADAGLVCITSFISPYTQDRNNARQIHEGASLPFFEVFVDAPLHVCEQRDVKGLYKKARAGEIKGFTGIDSEYEKPEAPELVLKTDSCDVNDCVQQVVELLNERDILP
GMELTALDKLEIMELAARFEMSLDKEDVENYLATFASDGALQGFWGIAKGKEELRQGFYAMLDTFARGKRHCSSNAIIQGNYDEATMESYLTVVNREDLNRAGSAFVKDQVRKINGKWYLILRQIEVDPSLPLLQQSQQAGANA
GPGSMDRSVAESIRQQSDDLRDELKELEQWEDAMQAREMAKAQRKVPLPTSVAAAEPPIRGTVPSLKEAIRQQQQQARATGTSGDTAAEAIADPIQQAKDKGNVLFQSGHLQEAVAAYTVGIDLDPASATTHVLYANRAMCYLKLGQWTAAEKDATTCVHMNTGYAKAYYRRAVARKQLGKLREARADLEAVLALAPKDVSAQQEMESVTKALQAKRAAESQATTTATTTKKKRIVIEEVDSEGDEAAAEAPATSASKLSTEEEELHQACIEEDMRRLAAARKANEEQVRQEAQREAAAQAKRQRRHERVEIIEEAEHSPAEKKKMAPSPATSSPVVEQTPPLSTSSPPSSSSPSPTSAATRPRARPPIAKESLTAPKSFSEFERRFRELVQQPDLRDHYVRLLDPATMAKLFGSNMSPEMLLGILQAIKTFNATTALQYAKGLCQVSRVEDVALFFDAQEKAVVQDVLDLLRSAPGTPAKDIQQIERKLKPL
MEQYDQLYRLYKSVDTTTLRGYQEFVDLFPPLSSTVALEQWETASDRLDALKADITDEFPGTGETYAEIAARLTRDEAFTALDLYSKYDRSVNVLVLDVDETLRSAGDTDNEIPRDTLYLLTQFHEAGIPIVVCTGQTLENVKGFMIQGLGNDLVSSGQMSIVYESGNGVFTPKHGEDTKRLLYERLDGAVVDVFETVRRRVLSEAPDAVGKRCHLQGNEFNVTLKPNAEVGSDNAVEIIDESLCYLCGLVGDAIAAQVDAEVDDPAGYARAYFSRDPEILDVLEAGGLPTHADIEDAPEAFRDILERVDLGYYEGDAAELVSLELDKSAGVEEAFDVLGIDDPFALVMGDSKSDLRVMRWVDENDAGIAAAPAHSSPDVLDHVSSRDDLVYEAGDASTVLRTIYGISLVEQLDEQGE
MAHHHHHHMGTLEAQTQGPGSMQYPPRLGFGTWQAPPEAVQTAVETALMTGYRHIDCAYVYQNEEAIGRAFGKIFKDASSGIKREDVWITSKLWNYNHRPELVREQCKKTMSDLQVDYLDLFLVHWPLAFVRNDVGDLFPKDAEGRAMLEKVPLADTWRAMEQLVEEGLVKHIGVSNYTVPLLADLLNYAKIKPLVNQIEIHPWHPNDATVKFCLDNGIGVTAYSPMGGSYADPRDPSGTQKNVILECKTLKAIADAKGTSPHCVALAWHVKKWNTSMYSVIPKSQTPARIEANFKCTEVQLSDDDMDAINNIHLNKRIRFCDPAIFWKVPLFD
MQKRVTDEEIKERLGKIKSRIAVMSGKGGVGKSTVTALLAVHYARQGKKVGILDADFLGPSIPILFGLRNARIAVSAEGLEPVLTQKYGIKVMSMQFLLPKENTPVIWRGPLIAGMIREFLGRVAWGELDHLLIDLPPGTGDAPLTVMQDAKPTGVVVVSTPQELTAVIVEKAINMAEETNTSVLGLVENMSYFVCPNCGHKSYIFGEGKGESLAKKYNIGFFTSIPIEEELIKLADSGRIEEYEKDWFESAPFLEHHHHHH

Soluble on expression in E. coli, not soluble:
AEGVKTTAEAPAAEPALAAYVPMPRPFLFNLPGPDRARLVEIKVQLMVRGQDDEVLTQKHIPLIEDALLTTFSGADVQKLSTQAGKDELRQLALLSVQNTLQPVTGRKVVEKVLFTGFVMQ
MGHHHHHHSHMNGEIMDDSLKTSLITEEEDSTSEVLDEELKLQPFNSSEDSTNLVPLVVESSKPPEVDAPDKTPRIPDSEMLMDEGTSDEKGHMEEKLSLLPRKKAHLGSSDNVATMSNEERSDGGFPNSVIAEFSEEPVSENLSPNTTSSLEDQGEEGVSEPQETSTALPQSSLIEVELEDVPFSQNAGQKNQSEEQSEASSEQLDQFTQSAEKAVDSSSEEIEVEVPVVDRRNLRRKAKGHKGPAKKKAKLT
MGSDKIHHHHHHMHSFHDAFSAPNAGNDTEAKRLPAKRRIRLKTAVLGVLLLASVAAQAEPRLTDLQYIGSHNSYHAGFAPSEATLLKQHDPAAFATLDYRHPPLTQQLDDGVRQLELDVFADAHGGRYAHPAIVEQIAKAGLPPAPASAPAGVMNKPGFKVLHVQDVDQRSTCQPLVTCLQEVRAWSQQHPGHLPIFILLETKQSPVQLSFPTVQPEPFDRKAMDALDAELRSVFRPGEYVSPDTVRGTARTLNAAVLAHGWPALRATRGKVVFLLDQRAAGASYLPGHPSLRGRVCFTNAEPGQDDAAFTERNDGPAEDITRLVQAGYLVRTRTDADLKEPARGDNRRRDAMLATGAQLLSTDFPAHEPARNGYVVRFDGDAVARCAPQLPRAHCEGVDLTH
MGSDKIHHHHHHMDVAAEYPVDKPDTQVSVRDVFGIESDLTVPAFTEVSEHVPDRDDAYCFDRDTTLAVLAGFAFNRRVMIQGYHGTGKSTHIEQIASRLNWPCIRVNLDSHVSRIDLVGKDAIVLRDGLQVTEFREGILPWCLQRPIALTFDEYDAGRADVMFVIQRVLEVEGRLTLLDQNKVIRPHPYFRLFATANTVGLGDTTGLYHGTQQINQGQMDRWNIVATLNYLEHDVEVGIALAKRPEYDTPEGRAKINAMVGVADLSRSGFINGDISTVMSPRTVLTWAENATIFGDDAFAFRVTFLNKCDETERPIIAEYYQRCFGKELPESAAFRTAFL
MAHHHHHHMALRRLVKMSTTAEECAAVSELFRQYRHPNLVPLTNVLVTDEFVMGSADVIMEYKFITGAKSLNEAFINEGKATEGLLWSFACQMVSLMRAFHETSTPLRGLHWTKILFVPVSSRFYFSGVGFMDVMEPKGSAHQSAALMKHDIQSLGLLLLQLSTGNSNAKPEDFTAQPAKGYSGIFWLLVKACIDGTADVVTLCRALGERMSMEVAHQEGHADRLISQCGKEAHNGRIMRLMIKLNFVLESLHDFPEHSAEANNRYALRLFSQYVFNQVDERHRTRLDWGHVFHSLNKLDCGSEELVQLIGNDESNTILVISYRDLRDTLERAFEQLQPPPNEGDVQPFTVTVGTTSATL
MGSDKIHHHHHHQDGNQPALVDALVVNARTPGPAWWSVSKGDKKVWVLGIGAPVPADAKWDGRAFERRVKASRQLILVPPSKTRFEKNTIKADRKWLDELTEAERARLAEVATQTGRKLEFYTLFRPNFAGLLINSELQARAKPKMGKLLDLSVRARRLGARLVPAGGLDAQAMKASFQVGGKDSLICLRWAMRPRDAAALREQRAQAWMRGDVRTLLVGPAAYDPCVQAMAAMQASLENNEGALANTIAATLDRGDGAVALVGLVPLLREGGVLDQLRKRGYLIETPAQMDDED
MGSDKIHHHHHHMLSRILEKYRENGIQGIVLALISRFPGVRAVCVYYVYRLPFDKLVRKQLSVGNLKVVQVKSDSMGDLIRVQDKPDIFGERFQMGHYGFVAYVNNDPVAYLWGQEGPVHVERRFGFEVPIKDNQVFYYDSYTIPEWRKSGVGRALIQESIDFFKNGLGKSELIAIIETGNLVSQKTYERMGFVREAMHIHLDIIGKKINKQLARMVTQ
MGSDKIHHHHHHSCGDKMNKNTGALEFDSIQVNETAHLFGDTAKPACNLTINFAYPVKSTDNKLKDSLNSYFIAACFGEGYIGEKPAQVVKEYTEHYVKEYRTDLEPMYAEDEKNKESEGSIGAWYSYYKGIESHVQLYYKNLLVYRINYNEYTGGAHGIYMTTFLNMDLINLRPLKLDDIFTGDYKEALTDLLWNQLMADKKVTTHEALEDMGYGSTGDIAPTENFYLDKDGITFYYNVYDITPYAMGPVEIKIPYEMMEHMLGSNPIIGEMKSK
MGSDKIHHHHHHMGIVGLPNAGKSSFFNFLTDNSVPAESFPFCTIEPNVGILVVPDERIEILAKNEGSKKVVHPFVEVVDIAGLVKGASKGEGLGNQFLDHISKVDVIAHVVRLFEDGRVSHPYQNVDPKRDIEIVETELILKDLETVQKRLEKRMKVARTGDKEAKREVELLQNLREFLSQGKKASKFPRHDRFEEEVIESLFLLTDKPQILVFNVDELDEEKRKLIEEIVKEKDEEYIIINVKLEEELKFLPEEEAEVFRREYNLFGDKRKEFFEKVLKLLNLIRFLTATQNEARSWTIKKGSTAYEAAGLIHSDIQKGFIKVEVIPFERYVEFGSLKKAREAGAVETHGKDYIVREGDVIHFLFRA
MGSDKIHHHHHHMQDLNDLYYFVQVVKHGGFAPAGRALGIPKSKLSRRITQLEERLDTRLIHRSTRRFSVTELGQAYYRHSVAMLVEAEAAEELIQRHHAEPQGTVRLSCSPSVLHYLITPLLVRFMARCPKVEVQVEATSRRVDVIKEGFDLAIRVRFPPLEDSDLTMKVLASSPQRLMAAPSLFAERPRPRSPADLVELPSLDFEQYDHRHCWDLVGPNGASAQVPHWPRLVTDSAETLHAAALEGLGVVKLGLLVGARDIQEGRLIDVLPGWEPRGGILHAAFPSRRGLLPAVRALLDFLDEQIADEDFDTQEALINSSPRG
